In assay [1] the test system is human monocytes. As to the kind of experiment: Chemotaxis of human monocytes. It counts as cell-based. How it is done:
(§1) Chemotaxis assay. L1.2-CCR1 transfectants, THP-1 cells, human monocytes and human neutrophils were collected by centrifugation and resuspended in HBSS containing 0.1% BSA. Chemotaxis assays were performed in 96-well ChemoTx® microplates (Neuroprobe, Rockville, Md.) as follows. Chemokines were added to the lower wells (final volume 29 μL), and 20 μL of cell suspension (5×10^6 cells/mL) was added to the polycarbonate filter (3 μm pore size for neutrophils, 5 μm for other 3 cell types). After incubation at 37° C. in the presence of 5% CO2 for 1 hr (neutrophils), 90 min (monocytes) or 2 h (THP-1 and L1.2-CCR1), cells were removed from the upper surface of the filter by scraping. Cells that migrated into the lower chamber were quantified by using the CyQuant cell proliferation assay kit (Molecular Probes, Eugene, Oreg.) and analyzed with a Tecan (Durham, N.C.) fluorimeter (excitation at 480 nm, emission at 530 nm). Data were analyzed and plotted in arbitrary units of fluorescence using Prism (GraphPad Software, San Diego, Calif.).
(§2) Chemotaxis assays. L1.2-CCR1 and L1.2-FPRL1 transfectants, monocytes and neutrophils were collected by centrifugation and resuspended in HBSS with 0.1% BSA. The assays were performed in 96-well ChemoTx® microplates (Neuroprobe, Rockville, Md.). Chemokines were diluted in HBSS with 0.1% BSA and added to the lower wells (final volume 29 μL), then 20 μL of cell suspension (5×10^6 cells/mL for monocytes; 2.5×10^6 cells/mL for neutrophils) were added to the polycarbonate filters (5 μm pore size for monocytes and FPRL1 transfectants; 3 μm pore size for neutrophils). After incubation for 90 min (37° C., 100% humidity, 5% CO2), the filters were removed and the cells that migrated into the lower chamber were quantified by using the CyQuant cell proliferation assay kit (Molecular Probes, Oreg.).

Assay [2] deals with monocyte-derived dendritic cells. In words: Calcium mobilization in monocyte-derived dendritic cells. It counts as cell-based, human. As to conditions: immature DC; after digestion with chymase, cathepsin G, elastase, synovial fluid or PMN sup #1. How it is done:
Human monocytes were obtained from buffy coats purchased from the Stanford Blood Bank (Palo Alto, Calif.) by sedimentation on Ficoll-Paque (Amersham, Piscataway, N.J.) and selection with anti-CD14 magnetic beads (Miltenyi, Auburn, Calif.) according to the manufacturers' instructions. For generation of dendritic cells, monocytes were cultured for 6 days in RPMI-1640 medium containing 10% FBS (HyClone, Logan, Utah). On days 0, 2 and 4, GM-CSF and IL-4 (both purchased from R&D Systems, Minneapolis, Minn.) were added to the cultures at 1000 WHO unit/ml each. The cells were confirmed to be CD14^−CD1a^+ immature DC by FACS staining on day 6.
(§3) Calcium Mobilization Assay. Cells were loaded for 1 hour with 2 μM indo-1/AM dye (Molecular Probes, Eugene, Oreg.) in culture medium, then washed with 10 ml PBS and resuspended at 10^6/ml in HBSS containing 1% FBS. Cytosolic calcium responses were determined using a Photon Technology International (Lawrenceville, N.J.) fluorimeter, with excitation at 350 nm and dual emission at 400 and 490 nm. Alternatively, cells were loaded with 5 μg/ml Fluo-4 AM dye (Molecular Probes, Eugene, Oreg.), then washed and analyzed on a Fluorometric Imaging Plate Reader 384 (FLIPR^384 Molecular Devices, Sunnyvale, Calif.), with 505 nm excitation and 530 nm emission.
Immature and mature DC preparation. Immature DCs were derived by culturing CD14+ monocytes in T-175 cultured flasks at a density of 10^6 cells/ml in RPMI supplemented with 10% FBS. Recombinant human cytokines GM-CSF and IL-4 (final concentration 1000 and 500 U/ml, respectively) were added on day 0, 2, 4 and 6. Cells were harvested on day 6 as immature DCs and characterized for surface marker expression by flow cytometry. DC maturation was carried out by culturing day-6 immature DCs in RPMI-10% FBS supplemented with GM-CSF, IL-4 and 50 μg/ml polyIC (Sigma, St. Louis Mo.). After two more days of culture, cells were harvested as mature DCs and characterized by surface marker expression by flow cytometry.
(§4) Receptor signaling assay. For individual measurements, cells were loaded for 45 min at room temperature with 2 μM indo-1/AM (Invitrogen, Carlsbad Calif.) in culture medium, then washed with 10 ml PBS and resuspended at 10^6 cells/ml in HBSS containing 0.1% BSA. Cytosolic calcium levels were determined using a Photon Technology International fluorimeter (excitation at 350 nm, ratio of dual emission at 400 and 490 nm). For measuring calcium dose responses, cells were analyzed with a Fluorometric Imaging Plate Reader 384 (FLIPR^384) (Molecular Devices, Sunnyvale, Calif.). Cells were loaded for 1 hr at 37° C. with 5 μM fluo-4 in HBSS with 0.1% BSA, then washed, transferred to black-wall 96-well plates, and subsequently excited at 505 nm with emission recorded at 530 nm with a standard protocol provided by the manufacture. Cells were stimulated with agonists 20 s after the monitoring of fluorescence began. Data were analyzed and plotted in arbitrary units of fluorescence using Prism. To ensure that responses were specific to FPRL1, we utilized a selective small-molecule antagonist of human FPRL1, generated by ChemoCentryx, which was optimized from a high throughput compound library screening approach.
A general note: A change in cytosolic calcium serves as a functional read-out for many receptors and channels.

The target in assay [3] is T1, L1.2-CCR1 cells (Homo sapiens, UniProt P32246).
T1 construct: expressed in transfected cells; host or cells: murine L1.2 cells (G-418 selected transfectant)
T1 sequence (P32246 1-355): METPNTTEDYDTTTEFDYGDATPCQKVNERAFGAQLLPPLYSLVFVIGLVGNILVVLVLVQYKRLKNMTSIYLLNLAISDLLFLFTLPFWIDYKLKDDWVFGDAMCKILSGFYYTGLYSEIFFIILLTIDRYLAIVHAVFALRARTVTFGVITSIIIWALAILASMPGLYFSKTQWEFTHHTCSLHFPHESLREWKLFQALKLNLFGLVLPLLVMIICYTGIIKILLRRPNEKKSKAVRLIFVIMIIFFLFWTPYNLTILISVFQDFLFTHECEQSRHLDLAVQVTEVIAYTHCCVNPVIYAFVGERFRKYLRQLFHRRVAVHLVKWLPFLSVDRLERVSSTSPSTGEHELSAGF
In words: L1.2-CCR1 chemotaxis assay. The assay is classed as cell-based. As to conditions: three-point titrations 0.5, 5, 50 nM, 2 hr. How it is done: as §1

Assay [4] deals with human monocytes. As to the kind of experiment: Calcium mobilization in freshly isolated human monocytes. The assay is classed as cell-based. The protocol: as §3, §4
The target in assay [5] is T2, CCR1 (Homo sapiens, UniProt P32246).
T2 sequence (P32246 1-355): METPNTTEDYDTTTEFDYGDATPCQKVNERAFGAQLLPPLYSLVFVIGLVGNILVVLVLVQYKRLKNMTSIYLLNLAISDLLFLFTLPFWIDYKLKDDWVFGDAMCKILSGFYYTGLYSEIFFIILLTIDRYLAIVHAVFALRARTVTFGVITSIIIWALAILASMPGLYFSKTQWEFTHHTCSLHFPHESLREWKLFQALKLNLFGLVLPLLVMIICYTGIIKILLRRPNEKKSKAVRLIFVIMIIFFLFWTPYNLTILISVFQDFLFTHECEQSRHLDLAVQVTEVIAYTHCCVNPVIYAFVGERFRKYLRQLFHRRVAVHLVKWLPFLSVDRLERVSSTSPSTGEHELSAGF
In words: Calcium mobilization in murine L1.2 cells expressing human CCR1. It counts as cell-based. Details: expressed in transfected cells; host or cells: murine L1.2 cells (G-418 selected transfectant). The note with it: for calcium mobilization: L1.2-CCR1 cells. How it is done:
as §3, §4

Assay [6] concerns the target T3, CCR9 (Homo sapiens, UniProt P51686).
T3 construct: endogenous in cells; host or cells: Molt4 cells (per the assay name)
T3 sequence (P51686 1-369): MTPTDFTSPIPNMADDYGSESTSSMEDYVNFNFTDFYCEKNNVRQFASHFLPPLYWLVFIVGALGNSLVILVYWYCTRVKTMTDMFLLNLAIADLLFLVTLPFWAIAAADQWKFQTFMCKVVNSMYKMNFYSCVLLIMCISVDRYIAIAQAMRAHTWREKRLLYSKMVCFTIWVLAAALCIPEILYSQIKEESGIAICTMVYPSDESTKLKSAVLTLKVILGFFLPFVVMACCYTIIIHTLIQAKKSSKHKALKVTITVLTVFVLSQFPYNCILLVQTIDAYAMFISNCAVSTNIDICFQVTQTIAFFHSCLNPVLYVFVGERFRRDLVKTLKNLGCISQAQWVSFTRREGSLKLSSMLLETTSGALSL
As to the kind of experiment: Calcium mobilization in Molt4 cells. It counts as cell-based. The note with it: digestions at 1 nM, all proteases and fluids tested. The protocol:
as §3

Assay [7] relates to human neutrophils. In words: Chemotaxis of human neutrophils. The assay is classed as cell-based. How it is done: as §1, §2
The target of assay [8] is T2, CCR1. As to the kind of experiment: Competition binding with 125I-MIP-1α on human monocytes. The arrangement: endogenous in cells; host or cells: human CD14+ monocytes from buffy coats. The protocol:
Binding assay. Competition binding studies were conducted using monocytes, L1.2-CCR1 or L1.2-FPRL1 cells. Cells were incubated for 3 hr at 4° C. with ^125I-MIP-1α (final concentration ˜0.05 nM) or ^125I-WKYMVm (final concentration ˜0.01 nM) in buffer (25 mM HEPES, 140 mM NaCl, 1 mM CaCl2, 5 mM MgCl2 and 0.2% BSA, adjusted to pH 7.1) in the presence of increasing amounts of unlabeled chemokine. Reactions were aspirated onto PEI-treated GF/B glass filters using a cell harvester (Packard). Filters were washed twice (25 mM HEPES, 500 mM NaCl, 1 mM CaCl2, 5 mM MgCl2, adjusted to pH 7.1). Scintillant (MicroScint-10; 35 μl) was added to the filters and counted in a Packard Topcount scintillation counter. Data were analyzed and plotted using Prism (GraphPad Software, San Diego, Calif.).

The mark [9] stands for this setting: undigested chemokine or peptide, 100 nM (CCL23β up to 250 nM).
[10] abbreviates: 10 nM input chemokine, after digestion with proteases and fluids.
Where [11] appears, read: 10 nM, undigested or recombinant chemokine.

B1: CCL6/C10: recombinant murine C6* chemokine (protein, listed as Homo sapiens)
chain: GLIQEMEKEDRRYNPPIIHQGFQDTSSDCCFSYATQIPCKRFIYYFPTSGGCIKPGIIFISRRGTQVCADPSDRRVQRCLSTLKQGPRSGNKVIA
With B1, the chemotaxis entry in assay [1] (200 nM after digestion with chymase, cathepsin G or elastase) was “stimulated chemotaxis”. In assay [1] (after digestion with synovial fluid #1), the “concentration with the most migration” value is on record as 2 nM. Besides, the “calcium mobilization versus full-length chemokine” value in assay [2] was “more efficacious”. Also, in assay [3], the “chemotaxis potency of truncated forms versus full-length chemokine” value is “greater potency”. In addition, the calcium mobilization result is recorded as “mobilized calcium” in assay [4] (100 nM after digestion with chymase, cathepsin G, elastase or synovial fluid); “unable to induce calcium mobilization” in assay [4] (setting [9]); “uniformly active” in assay [5] (setting [10]); “either not active or weakly active” in assay [5] (setting [11]).

B2: CCL9/MIP-1γ: recombinant murine C6* chemokine (protein, listed as Homo sapiens)
chain: QITHATETKEVQSSLKAQQGLEIEMFHMGFQDSSDCCLSYNSRIQCSRFIGYFPTSGGCTRPGIIFISKRGFQVCANPSDRRVQRCIERLEQNSQPRTYKQ
B2: the “chemotaxis potency of truncated forms versus full-length chemokine” value in assay [3] is “greater potency”. In addition, the figures for the calcium mobilization entry in assay [5] (setting [10]) and in assay [5] (setting [11]) were “uniformly active” and “either not active or weakly active”, respectively.

B3: CCL25/TECK: non-C6* β-chemokine signaling through CCR9 (protein, UniProt O15444 24-150, looked up)
C-C motif chemokine 25: QGVFEDCCLAYHYPIGWAVLRRAWTYRIQEVSGSCNLPAAIFYLPKRHRKVCGNPKSREVQRAMKLLDARNKVFAKLHHNTQTFQAGPHAVKKLSSGNSKLSSSKFSNPISSSKRNVSLLISANSGL
On to B3, for which the “signaling through CCR9 after digestion” value in assay [6] is recorded as “inactivated”.

B4: CCL23Δ24/MPIF-1: Recombinant CCL23/CKβ8 lacking the N-terminal 24 residues (46-120) (protein)
chain: RFHATSADCCISYTPRSIPCSLLESYFETNSECSKPGVIFLTKKGRRFCANPSDKQVQVCMRMLKLDTRIKTRKN
For B4, the figures for the chemotaxis result in assay [1] (undigested) and in assay [7] were “moderately strong chemoattraction” and “unable to induce migration”, respectively. Moreover, in assay [4] (setting [9]), the calcium mobilization entry was “strong calcium responses”. Moreover, in assay [5] (L1.2 cells stably expressing human CCR1), the “calcium mobilization in the CCR1 transfectant” value is reported as “effective at inducing calcium mobilization”. Besides, in assay [8], the “inhibition of 125I-MIP-1α binding” value is given as “most potent competitor”.

The values are drawn from US7572600B2, “Enzymatic activities in chemokine-mediated inflammation” (Chemocentryx, Inc., priority 2004, dated 2009).
